Test results as given in doi:10.1101/2023.06.06.543969.

What was measured:
Assay in all cases: BLI
[1] = target: HCV E2 envelope glycoprotein
[2] = target: HC84.26.5D Fab VH G50R (human)
[3] = target: biotinylated SARS-CoV-2 fusion peptide
SARS-CoV-2 spike = target: SARS-CoV-2 spike
[4] = target: His-tagged HIV Env MPER peptide

HC33.8 VH:S52Y
ratio to parent [1]: > 100

HCV (isolate H77) E2 domain (domain or fragment)
fold change in KD against the wild type [2]: 6 fold

HCV1 VH:W52S
ratio to parent [1]: > 100

COV44–62 Fab (WT) VH:R50W
ratio to parent [3]: > 100

COVOX-316 VH:W50R
ratio to parent (SARS-CoV-2 spike): > 100

4E10 Fab (WT) VH:G50R
ratio to parent [4]: > 100

P008_60 VH:S52R
ratio to parent (SARS-CoV-2 spike): > 100
